Patent US10400249B2, “HPPD variants and methods of use” (priority 2014, dated 2019)

How the values were obtained:
T0 soybean plants = assay: greenhouse spray test of T0 soybean plants for tolerance to mesotrione; assay type: in vivo; conditions: mesotrione 3X field rate, 316 grams AI per hectare, seven days after treatment
Description: T0 soybean plants expressing an HPPD inhibitor tolerant enzyme of the present invention, along with a gene conferring tolerance to glyphosate and a gene conferring tolerance to glufosinate or having a “plant expression cassette”, which includes only an HPPD inhibitor tolerant enzyme of the present invention, were tested for tolerance to mesotrione. Prior greenhouse trials with the transgenic plants, soy transformants were routinely analyzed for the expression and presence of the transgenes using the ELISA protein detection method (see detailed description under item D and H). Only plants recovering in the selection media and having a detectable HPPD transgene protein expression were used for the herbicide tolerance analysis. A DeVries Tracker Sprayer was calibrated prior to each spraying. The chemical formulation used for mesotrione (MST) testing was Callisto® 4 SC formulation supplemented with ammonium sulfate and methylated rape seed oil (Actirob). Spray tests were conducted using 3× the field rate (equivalent to 9 fluid ounce per acre of the same herbicide formulation that containing 40% the active ingredient (AI), mesotrione), which equals 316 grams AI per hectare. Tolerance was evaluated one week after spraying. […] A tolerance rating of “0” was assigned to plants that their shoot apexes, newly emerged trifoliates and some axillary buds were completely bleached. A rating of “1” was assigned to plants having slight tolerance, i.e., the newest plant shoot tissues had some green leaves and are not bleached completely. A rating of “2” was assigned to plants showing moderate tolerance, i.e., more than 50% of the leaf area of the top three trifoliates showing no chlorosis or bleaching damage. A rating of “3” was assigned to plants showing nearly perfect tolerance, i.e., less than 10% of the leaf area showing chlorosis or very slight bleaching.

maize T0 events = assay: greenhouse spray test of maize T0 events for tolerance to Cmpd. 4; assay type: in vivo; conditions: Cmpd. 4 at 100 g AI/ha; for number of maize T0 events in herbicide tolerance class 0 (41%-100% damaged leaf area) / number of maize T0 events in herbicide tolerance class 1 (16%-41% damaged leaf area) / number of maize T0 events in herbicide tolerance class 2 (6%-15% damaged leaf area) / number of maize T0 events in herbicide tolerance class 3 (0%-5% damaged leaf area): six days after application
Description: Constructing the plant expression cassette for stable expression in the maize plant and maize transformation are well known in the art and in this particular example the methods were described and used from the PCT patent publication WO2014/043435 and WO2008/100353. The polynucleotide sequences encoding the HPPD variants in this application have been stacked with a DNA sequence encoding an EPSPS protein variant to confer tolerance to herbicides, which target the EPSPS. The EPSPS gene was isolated and mutated from Arthrobacter globiformis (WO2008/100353) and joined in-frame to a transit peptide sequence to guide translocation of the translated protein to the chloroplast.
The corresponding HPPD variants were cloned with the same promoter, chloroplast transit peptide, and terminator sequence as described for the EPSPS gene expression cassette. The coding sequences for both genes have been codon optimized for maize expression. For the maize transformation ears are best collected 8-12 days after pollination. Embryos were isolated from the ears, and those embryos 0.8-1.5 mm in size were preferred for use in transformation. Embryos were plated scutellum side-up on a suitable incubation media, and incubated overnight at 25° C. in the dark.
However, it was not necessary per se to incubate the embryos overnight. Embryos are contacted with an Agrobacterium strain containing the appropriate vectors having a nucleotide sequence of the present invention for Ti plasmid mediated transfer for about 5-10 min, and then plated onto co-cultivation media for about 3 days (25° C. in the dark). After co-cultivation, explants were transferred to recovery period media for about five days (at 25° C. in the dark). Explants were incubated in selection media with glyphosate for up to eight weeks, depending on the nature and characteristics of the particular selection utilized. After the selection period, the resulting callus were transferred to embryo maturation media, until the formation of mature somatic embryos is observed. The resulting mature somatic embryos were then placed under low light, and the process of regeneration was initiated as known in the art. The resulting shoots were allowed to root on rooting media, and the resulting plants were transferred to nursery pots and propagated as transgenic plants. Plants were routinely analyzed for the expression and presence of the transgenes using the ELISA protein detection method. Only plants recovering in the selection media and having a detectable HPPD transgene protein expression were used for the herbicide tolerance analysis.
Regenerated T0 events from tissue culture were transplanted into two inch square pots with synthetic soil (Fafard® Mix) and controlled-released fertilizer (Haifa Multicote™; polymer-coated controlled-release fertilizer, NPK Pro 18-6-12+ Micronutrients) and cultivated in the greenhouse (GH) under supplementary high pressure sodium light for 12 days at a maximum of 30° C. during the day and a minimum of 22° C. at night. Fully recovered plants were transferred into five inch square pots filled with synthetic soil and control released fertilizer under the same environmental conditions. After seven days the T0 plants have been sprayed with 2-chloro-3-(methylsulfanyl)-N-(1-methyl-1H-tetrazol-5-yl)-4-(trifluoromethyl)benzamide (Cmpd. 4); at agronomic relevant concentration of 100 g AI/ha (with “g AI/ha” meaning “gram of active ingredient per hectare”) prepared from a WP20 (wettable powder 20%) formulation supplemented with esterified vegetable oil mixture (Hasten™ spray adjuvants, 0.578% v/v) and ammonium sulphate (AMS, 0.97% w/v). The herbicide treatment was conducted in a DeVries Tracker Sprayer system with standard application protocols, which are well known in the art. As a spray control T0 events have been sprayed with the adjuvant mixture lacking the herbicide. […]

[1] = HT-single plant expression cassette
[2] = HT-triple plant expression cassette

Molecule | Number of T0 soybean plants with herbicide tolerance rating 0 (completely bleached) (T0 soybean plants; [1]) | Number of T0 soybean plants with herbicide tolerance rating 1 (slight tolerance) (T0 soybean plants; [1]) | Number of T0 soybean plants with herbicide tolerance rating 2 (moderate tolerance) (T0 soybean plants; [1]) | Number of T0 soybean plants with herbicide tolerance rating 3 (nearly perfect tolerance) (T0 soybean plants; [1]) | Number of T0 soybean plants with herbicide tolerance rating 0 (completely bleached) (T0 soybean plants; [2]) | Number of T0 soybean plants with herbicide tolerance rating 1 (slight tolerance) (T0 soybean plants; [2]) | Number of T0 soybean plants with herbicide tolerance rating 2 (moderate tolerance) (T0 soybean plants; [2]) | Number of T0 soybean plants with herbicide tolerance rating 3 (nearly perfect tolerance) (T0 soybean plants; [2]) | share of tested maize events with good to high tolerance, 15% or less bleached leaf area (maize T0 events) | share of tested maize events with less than 5% or no visual leaf damage (maize T0 events) [%] | number of maize T0 events in herbicide tolerance class 0 (41%-100% damaged leaf area) (maize T0 events) | number of maize T0 events in herbicide tolerance class 1 (16%-41% damaged leaf area) (maize T0 events) | number of maize T0 events in herbicide tolerance class 2 (6%-15% damaged leaf area) (maize T0 events) | number of maize T0 events in herbicide tolerance class 3 (0%-5% damaged leaf area) (maize T0 events)
FLP136: PfHPPD variant P215L, E335P, G336F (protein, HPPD variant - FLP136, PfHPPD variant P215L, E335P, G336F) MADLYENPMGLMGFEFIEFASPTPGTLEPIFEIMGFTKVATHRSKNVHLYRQGEINLILNNEPNSIASYFAAEHGPSVCGMAFRVKDSQKAYNRALELGAQPIHIDTGPMELNLPAIKGIGGAPLYLIDRFGEGSSIYDIDFVYLEGVERNPVGAGLKVIDHLTHNVYRGRMVYWANFYEKLFNFREARYFDIKGEYTGLTSKAMSAPDGMIRILLNEESSKGAGQIEEFLMQFNGEGIQHVAFLTDDLVKTWDALKKIGMRFMTAPPDTYYEMLEGRLPDHGEPVDQLQARGILLDGSSVEGDKRLLLQIFSETLMGPVFFEFIQRKGDDGFGPFNFKALFESIERDQVRRGVLTAD | 4 | 10 | 41 | 20 | 4 | 17 | 33 | 19 | Approximately 40% | ~15 | 13 | 37 | 21 | 13
FLP202: PfHPPD variant P215L, E335P, G336F, A340E (protein, HPPD variant - FLP202, PfHPPD variant P215L, E335P, G336F, A340E) MADLYENPMGLMGFEFIEFASPTPGTLEPIFEIMGFTKVATHRSKNVHLYRQGEINLILNNEPNSIASYFAAEHGPSVCGMAFRVKDSQKAYNRALELGAQPIHIDTGPMELNLPAIKGIGGAPLYLIDRFGEGSSIYDIDFVYLEGVERNPVGAGLKVIDHLTHNVYRGRMVYWANFYEKLFNFREARYFDIKGEYTGLTSKAMSAPDGMIRILLNEESSKGAGQIEEFLMQFNGEGIQHVAFLTDDLVKTWDALKKIGMRFMTAPPDTYYEMLEGRLPDHGEPVDQLQARGILLDGSSVEGDKRLLLQIFSETLMGPVFFEFIQRKGDDGFGPFNFKELFESIERDQVRRGVLTAD | 2 | 21 | 37 | 18 | 7 | 8 | 10 | 14 | More than 30% | ~13 | 12 | 49 | 16 | 12
